B1: anti-GITR 51B VH1/VL0 antibody (human IgG1, kappa) (antibody, V domains shown)
VH: QVQLVQSGAELKKPGASVKLSCKTTGYRFTGYWIEWVRQPPGKGLEWIGEILPGSGATYYSENFKGKATITADTSTNTAYMEVSSLRSGDSAIYYCARKGGYYAMDYWGQGTSVTVSS
VL: QIVLTQSPAIMSASLGERVTMTCTASSSVSSSYFHWYQQKPGSSPKLWIYSTSNLASGVPARFSGSGSGTSYSLTVSSLEAEDAATYYCHLYHRSPRTFGGGTTLDIKR
B2: anti-GITR 51B VH4/VL5 humanized antibody (human IgG1, kappa) (antibody, V domains shown)
VH: QVQLVQSGAEVKKPGASVKVSCKTTGYRFTGYWINWVRQPPGKGLEWIGEILPGSGATYYSENFKGKVTITADTSTDTAYMELSSLRSEDTAIYYCARKGGYYAMDYWGQGTLVTVSS
VL: EIVLTQSPATLSLSPGERATLSCTASSSVSSSYFHWYQQKPGKAPKLWIYSTSNLESGVPDRFSGSGSGTDYTLTISSLQAEDVATYYCHLYHRSPRTFGGGTKVEIKR
B3: anti-GITR 51B VH1/VL1 humanized antibody (human IgG1, kappa) (antibody, V domains shown)
VH: QVQLVQSGAELKKPGASVKLSCKTTGYRFTGYWIEWVRQPPGKGLEWIGEILPGSGATYYSENFKGKATITADTSTNTAYMEVSSLRSGDSAIYYCARKGGYYAMDYWGQGTSVTVSS
VL: QIVLTQSPAIMSASLGERVTMSCTASSSVSSSYFHWYQQKPGSAPKLWIYSTSNLASGVPDRFSGSGSGTDYTLTVSSLQAEDVATYYCHLYHRSPRTFGGGTTVDIKR
B4: anti-GITR 51B VH5/VL5 humanized antibody (human IgG1, kappa) (antibody, V domains shown)
VH: QVQLVQSGAEVKKPGASVKVSCKTTGYRFTGYWIDWVRQPPGKGLEWIGEILPGSGATYYSENFKGKVTITADTSTDTAYMELSSLRSEDTAIYYCARKGGYYAMDYWGQGTLVTVSS
VL: EIVLTQSPATLSLSPGERATLSCTASSSVSSSYFHWYQQKPGKAPKLWIYSTSNLESGVPDRFSGSGSGTDYTLTISSLQAEDVATYYCHLYHRSPRTFGGGTKVEIKR
B5: anti-GITR 51B VH5/VL1 humanized antibody (human IgG1, kappa) (antibody, V domains shown)
VH: QVQLVQSGAEVKKPGASVKVSCKTTGYRFTGYWIDWVRQPPGKGLEWIGEILPGSGATYYSENFKGKVTITADTSTDTAYMELSSLRSEDTAIYYCARKGGYYAMDYWGQGTLVTVSS
VL: QIVLTQSPAIMSASLGERVTMSCTASSSVSSSYFHWYQQKPGSAPKLWIYSTSNLASGVPDRFSGSGSGTDYTLTVSSLQAEDVATYYCHLYHRSPRTFGGGTTVDIKR
B6: anti-GITR 51B VH5/VL4 humanized antibody (human IgG1, kappa) (antibody, V domains shown)
VH: QVQLVQSGAEVKKPGASVKVSCKTTGYRFTGYWIDWVRQPPGKGLEWIGEILPGSGATYYSENFKGKVTITADTSTDTAYMELSSLRSEDTAIYYCARKGGYYAMDYWGQGTLVTVSS
VL: EIVLTQSPATLSLSPGERATLSCTASSSVSSSYFHWYQQKPGKAPKLWIYSTSNLQSGVPDRFSGSGSGTDYTLTISSLQAEDVATYYCHLYHRSPRTFGGGTKVEIKR

The assay concerns the target recombinant human GITR (Cat No. 13643-H08H, Lot No. LC12JA2509, Sino Biological) (human) (UniProt Q9Y5U5). As to the kind of experiment: SPR Biacore 8K, single-cycle kinetics, IgG in supernatant captured on Protein A, GITR as analyte. A general note: SPR reads the build-up and loss of mass on a sensor chip optically.
For the molecule B1, the Kd (in general, the concentration at which binding is half-saturated) came out at 1.08 nM; the Relative KD (fold vs VH0/VL0) was 1.9; the koff (usually a measure of how fast the partners let go of each other) amounted to 0.000654 s⁻¹; the kon (usually a measure of how fast the partners come together) was 603000 M⁻¹ s⁻¹.
On to B2, for which the Kd amounted to 1.26 nM, the Relative KD (fold vs VH0/VL0) came out at 2.2, the koff was 0.000599 s⁻¹ and the kon came out at 474000 M⁻¹ s⁻¹.
On the same counts, the results for B3 are 1.32 nM, 2.3, 0.000949 s⁻¹ and 721000 M⁻¹ s⁻¹.
On the same counts, the results for B4 are 3.32 nM, 5.9, 0.000975 s⁻¹ and 294000 M⁻¹ s⁻¹.
The corresponding values for B5 are 1.94 nM, 3.4, 0.000742 s⁻¹ and 382000 M⁻¹ s⁻¹.
For the molecule B6, the Kd came to 1.37 nM, the Relative KD (fold vs VH0/VL0) was 2.4, the koff amounted to 0.00149 s⁻¹ and the kon was determined as 1.08e+06 M⁻¹ s⁻¹.
